According to publication PMC11840923, “Kinetic and Thermodynamic Characterization of Human 4-Oxo-L-proline Reductase Catalysis” (Biochemistry, 2025):

Substrate: O=C1CN[C@H](C(=O)O)C1
Assay: purified protein
Type: biochemical, Homo sapiens
Conditions: NADH binds the HsBDH2:NADH complex; receives the pro-S hydrogen from NADH

B1: 4-oxo-L-proline reductase (HsBDH2) (Homo sapiens) (protein)
chain: MGRLDGKVIILTAAAQGIGQAAALAFAREGAKVIATDINESKLQELEKYPGIQTRVLDVTKKKQIDQFANEVERLDVLFNVAGFVHHGTVLDCEEKDWDFSMNLNVRSMYLMIKAFLPKMLAQKSGNIINMSSVASSVKGVVNRCVYSTTKAAVIGLTKSVAADFIQQGIRCNCVCPGTVDTPSLQERIQARGNPEEARNDFLKRQKTGRFATAEEIAMLCVYLASDESAYVTGNPVIIDGGWSL
- Km: 176 µM
